Literature values in US20130252257A1, “QUANTIFICATION OF CIRCULATING STEM AND PROGENITOR CELLS AS A MEANS OF ASSESSING EFFICACY OF NATUROPATHIC INTERVENTIONS” (Creative Medical Health, Inc., priority 2011, published 2013).
Read-outs that look alike come from different tables or passages of the source.

Legend:
[1] = test system: endothelial responsiveness
[2] = test system: circulating EPC; settings: in vivo
[3] = test system: endothelial progenitor cells (EPC); settings: in addition to mobilizing HSC
[4] = test system: myocardial infarct; settings: 114 patients, 56 treated and 58 control
[5] = test system: ST-elevation myocardial infarction; settings: 6 days of G-CSF at 10 μg/kg
[6] = test system: large anterior wall AMI; settings: 41 patients with large anterior wall AMI

For “growth hormone: growth hormone, used in antiaging medicine; clinically-applicable mobilizer”, the endothelial responsiveness ([1]; healthy volunteers) is given as “improve endothelial responsiveness” and the endothelial responsiveness ([1]; patients with congestive heart failure) is given as “improve endothelial responsiveness”.

In the case of `CC(C)c1nc(N(C)S(C)(=O)=O)nc(-c2ccc(F)cc2)c1/C=C/[C@@H](O)C[C@@H](O)CC(=O)O` [Crestor], the “circulating EPC levels” value [2] is given as “increase circulating EPC levels”.

B1: G-CSF: Granulocyte colony stimulating factor, used clinically for mobilization of hematopoietic stem cells (protein, UniProt P09919 31-207, looked up)
Granulocyte …: TPLGPASSLPQSFLLKCLEQVRKIQGDGAALQEKLVSECATYKLCHPEELVLLGHSLGIPWAPLSSCPSQALQLAGCLSQLHSGLFLYQGLLQALEGISPELGPTLDTLQLDVADFATTIWQQMEELGMAPALQPTQGAMPAFASAFQRRAGGVLVASHLQSFLEVSYRVLRHLAQP
In the case of B1, the “mobilization of EPC” value [3] is given as “stimulates mobilization of EPC”, the “infarct size, left ventricular function, or coronary restenosis” value [4] is given as “no influence” and the ejection fraction ([5]; in comparison to controls) is given as “Statistically significant improvements”. The pathological remodeling ([5]; in comparison to controls) was “inhibition of pathological remodeling”, the “myocardial wall at the area of infarct” value ([5]; four months after infarct, versus controls, sustained over a year) was “thicker myocardial wall” and the “left ventricle ejection fraction (LVEF)” value [6] was “improvement”. The pathological remodeling [6] was “diminished pathological remodeling”.
